Molecular target: full-length NAIP5 with an N-terminal Flag tag (mouse, UniProt Q9R016 1-1403)
Assay: cryo-EM structure

Sequence of full-length NAIP5 with an N-terminal Flag tag (Q9R016 whole entry): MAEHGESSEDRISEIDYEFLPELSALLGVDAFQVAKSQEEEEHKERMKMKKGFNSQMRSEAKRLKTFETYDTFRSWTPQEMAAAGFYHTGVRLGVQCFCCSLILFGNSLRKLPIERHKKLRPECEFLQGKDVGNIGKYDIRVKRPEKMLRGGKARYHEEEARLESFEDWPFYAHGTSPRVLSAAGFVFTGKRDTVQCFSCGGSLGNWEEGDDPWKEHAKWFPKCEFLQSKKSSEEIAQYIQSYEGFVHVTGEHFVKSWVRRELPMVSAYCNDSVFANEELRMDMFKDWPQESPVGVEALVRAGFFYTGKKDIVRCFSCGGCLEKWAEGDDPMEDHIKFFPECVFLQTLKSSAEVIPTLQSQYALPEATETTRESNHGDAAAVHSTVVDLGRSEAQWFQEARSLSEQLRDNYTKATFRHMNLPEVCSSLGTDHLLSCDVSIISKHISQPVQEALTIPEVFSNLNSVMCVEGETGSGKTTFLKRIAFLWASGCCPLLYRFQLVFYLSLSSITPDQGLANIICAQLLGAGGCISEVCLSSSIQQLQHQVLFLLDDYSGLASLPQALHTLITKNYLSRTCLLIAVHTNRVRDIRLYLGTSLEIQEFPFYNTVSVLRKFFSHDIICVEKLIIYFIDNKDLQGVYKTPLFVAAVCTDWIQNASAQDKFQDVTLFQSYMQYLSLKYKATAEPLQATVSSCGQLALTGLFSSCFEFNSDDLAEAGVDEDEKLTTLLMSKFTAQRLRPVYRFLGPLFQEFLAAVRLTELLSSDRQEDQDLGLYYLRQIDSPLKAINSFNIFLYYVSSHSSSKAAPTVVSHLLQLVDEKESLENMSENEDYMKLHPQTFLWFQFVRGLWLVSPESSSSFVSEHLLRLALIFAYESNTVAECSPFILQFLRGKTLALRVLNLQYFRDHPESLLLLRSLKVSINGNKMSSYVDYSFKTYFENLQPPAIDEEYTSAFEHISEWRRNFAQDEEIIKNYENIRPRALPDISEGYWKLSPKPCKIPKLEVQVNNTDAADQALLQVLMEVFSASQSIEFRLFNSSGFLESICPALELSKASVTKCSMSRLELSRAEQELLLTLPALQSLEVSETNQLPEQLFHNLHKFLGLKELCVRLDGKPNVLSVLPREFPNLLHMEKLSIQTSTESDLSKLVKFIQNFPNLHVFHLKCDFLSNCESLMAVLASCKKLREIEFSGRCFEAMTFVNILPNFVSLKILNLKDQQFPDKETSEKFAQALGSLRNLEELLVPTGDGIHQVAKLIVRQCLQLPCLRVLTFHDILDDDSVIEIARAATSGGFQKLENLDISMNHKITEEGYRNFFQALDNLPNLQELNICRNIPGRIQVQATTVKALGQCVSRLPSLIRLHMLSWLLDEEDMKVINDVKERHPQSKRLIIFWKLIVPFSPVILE

B1: full-length S. typhimurium flagellin FliC with N-terminal His tag (natural protein)
chain: MAQVINTNSLSLLTQNNLNKSQSALGTAIERLSSGLRINSAKDDAAGQAIANRFTANIKGLTQASRNANDGISIAQTTEGALNEINNNLQRVRELAVQSANSTNSQSDLDSIQAEITQRLNEIDRVSGQTQFNGVKVLAQDNTLTIQVGANDGETIDIDLKQINSQTLGLDTLNVQQKYKVSDTAATVTGYADTTIALDNSTFKASATGLGGTDQKIDGDLKFDDTTGKYYAKVTVTGGTGKDGYYEVSVDKTNGEVTLAGGATSPLTGGLPATATEDVKNVQVANADLTEAKAALTAAGVTGTASVVKMSYTDNNGKTIDGGLAVKVGDDYYSATQNKDGSISINTTKYTADDGTSKTALNKLGGADGKTEVVSIGGKTYAASKAEGHNFKAQPDLAEAAATTTENPLQKIDAALAQVDTLRSDLGAVQNRFNSAITNLGNTVNNLTSARSRIEDSDYATEVSNMSRAQILQQAGTSVLAQANQVPQNVLSLLR
  binding result: binds
